Assay results reported in US20250304717A1, “CAMPTOTHECIN DERIVATIVE AND LIGAND-DRUG CONJUGATE” (HAINAN SIMCERE ZAIMING PHARMACEUTICAL CO., LTD., priority 2022, published 2025).

T1: CDH6 on OVCAR3 cells (human, UniProt P55285 54-790)
T1 construct: whole, on cells; also called CDH6 positive cells OVCAR3; CDH6 high-expression cell strain
T1 sequence (looked up): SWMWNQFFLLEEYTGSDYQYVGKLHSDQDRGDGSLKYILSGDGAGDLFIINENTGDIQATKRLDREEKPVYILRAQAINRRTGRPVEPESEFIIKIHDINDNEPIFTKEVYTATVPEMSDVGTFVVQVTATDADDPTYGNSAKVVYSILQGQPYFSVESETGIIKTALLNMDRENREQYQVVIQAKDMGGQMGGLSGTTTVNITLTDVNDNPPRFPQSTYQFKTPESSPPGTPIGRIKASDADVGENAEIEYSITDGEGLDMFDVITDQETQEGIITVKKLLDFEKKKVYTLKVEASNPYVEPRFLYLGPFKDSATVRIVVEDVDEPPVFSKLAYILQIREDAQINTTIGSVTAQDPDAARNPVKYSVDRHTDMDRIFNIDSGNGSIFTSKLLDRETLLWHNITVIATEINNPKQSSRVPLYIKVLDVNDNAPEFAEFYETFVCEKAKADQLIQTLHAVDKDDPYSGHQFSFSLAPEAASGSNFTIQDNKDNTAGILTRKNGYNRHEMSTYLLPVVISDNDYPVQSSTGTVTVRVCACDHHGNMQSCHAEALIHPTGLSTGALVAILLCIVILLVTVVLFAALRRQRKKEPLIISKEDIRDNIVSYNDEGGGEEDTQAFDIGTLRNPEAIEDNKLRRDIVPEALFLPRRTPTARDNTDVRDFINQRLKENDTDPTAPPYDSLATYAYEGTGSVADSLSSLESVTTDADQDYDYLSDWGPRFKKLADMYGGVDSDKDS

B1: ADC-L1-19-10 (antibody, human IgG1, kappa, V domains shown)
VH: QVQLRESGPGLVKPSETLSLTCTVSGFDISSYYMSWVRQPPGKGLEWIGAIGISGNAYYASWAKSRVTISRDTSKNQFSLKLSSVTAADTAVYYCARDHPTYGMDLWGPGTLVTVSS
VL: SYELTQPPSVSVAPGKTARITCEGNNIGSKAVHWYQQKPGQAPVLVIYDDDERPSGIPERFSGSNSGNTATLTISRVEAGDEADYYCQVWDSSAYVFGGGTKLTVLR
modifications: drug-linker L1-19 on cysteine thiols after TCEP reduction; positions not given; DAR 7.2 for the whole conjugate
notes: Antibody-drug conjugate
B2: ADC-L1-0-10 (antibody, human IgG1, kappa, V domains shown)
VH: B1 VH
VL: B1 VL
modifications: drug-linker L1-0 on cysteine thiols after TCEP reduction; positions not given; DAR 7.5 for the whole conjugate
B3: ADC-L1-19-P1-10 (antibody, human IgG1, kappa, V domains shown)
VH: B1 VH
VL: B1 VL
modifications: drug-linker L1-19-P1 on cysteine thiols after TCEP reduction; positions not given; DAR 8.0 for the whole conjugate
notes: Antibody-drug conjugate
B4: ROR1-Ab-3 (antibody, human IgG1, kappa, V domains shown)
VH: B1 VH
VL: B1 VL
notes: also called anti-human ROR1 monoclonal antibody ROR1-Ab-3
B5: ADC-L1-19-9 (antibody, human IgG1, kappa, V domains shown)
VH: EVQLLESGGGLVQPGGSLRLSCAASGFTFSNYAMSWVRQAPGKGLEWVSSISHNSGSTYYADSVKGRFTISRDNSKNTLYLQMNSLRAEDTAVYYCAKFISARKSLGRSYSNGMDVWGQGTLVTVSS
VL: QSVLTQPPSASGTPGQRVTISCTGSSSNIGSNDVTWYQQLPGTAPKLLIYADSKRPSGVPDRFSGSKSGTSASLAISGLRSEDEADYYCGTWDYSLSGYVFGGGTKLTVLR
modifications: drug-linker L1-19 on cysteine thiols after TCEP reduction; positions not given; DAR 7.3 for the whole conjugate
notes: Antibody-drug conjugate
B6: ROR1-Ab-2 (antibody, human IgG1, kappa, V domains shown)
VH: B5 VH
VL: B5 VL
notes: also called anti-human ROR1 monoclonal antibody ROR1-Ab-2
B7: ADC-L1-19-P1-9 (antibody, human IgG1, kappa, V domains shown)
VH: B5 VH
VL: B5 VL
modifications: drug-linker L1-19-P1 on cysteine thiols after TCEP reduction; positions not given; DAR 7.7 for the whole conjugate
notes: Antibody-drug conjugate
B8: ADC-L1-0-9 (antibody, human IgG1, kappa, V domains shown)
VH: B5 VH
VL: B5 VL
modifications: drug-linker L1-0 on cysteine thiols after TCEP reduction; positions not given; DAR 5.5 for the whole conjugate
B9: ADC-L1-0-8 (antibody, human IgG1, kappa, V domains shown)
VH: QVQLQESGPGLVKPSQTLSLTCTVSGYAFTAYNIHWVRQAPGQGLEWMGSFDPYDGGSSYNQKFKDRLTISKDTSKNQVVLTMTNMDPVDTATYYCARGWYYFDYWGHGTLVTVSS
VL: DIVMTQTPLSLPVTPGEPASISCRASKSISKYLAWYQQKPGQAPRLLIYSGSTLQSGIPPRFSGSGYGTDFTLTINNIESEDAAYYFCQQHDESPYTFGEGTKVEIKR
modifications: drug-linker L1-0 on cysteine thiols after TCEP reduction; positions not given; DAR 6.6 for the whole conjugate
B10: ROR1-Ab-1 (antibody, human IgG1, kappa, V domains shown)
VH: B9 VH
VL: B9 VL
notes: also called anti-human ROR1 monoclonal antibody ROR1-Ab-1
B11: ADC-L1-19-5 (antibody, human IgG1, kappa, V domains shown)
VH: EVQLVQSGAEVKKPGASVKVSCKASGYTFTDNYINWVRQAPGQRLEWMGWIYPGTGNSYYNEKFKGRVTITVDTSASTAYMELSSLRSEDTAVYLCASSYGDSFDYWGQGTTVTVSS
VL: DIVMTQSPDSLAVSLGERATINCRASQDIRNYLNWYQQKPGQTPKLLISYTSRLHSGVPDRFSGSGSGTDFTLTISSLQAEDVAVYYCQQYSQLPWTFGGGTKVEIKR
modifications: drug-linker L1-19 on cysteine thiols after TCEP reduction; positions not given; DAR 6.8 for the whole conjugate
notes: Antibody-drug conjugate
B12: CDH6-Ab-2 (antibody, human IgG1, kappa, V domains shown)
VH: B11 VH
VL: B11 VL
notes: also called humanized anti-human CDH6 antibody CDH6-Ab-2
B13: ADC-L1-14-P1-3 (antibody, human IgG1, kappa, V domains shown)
VH: EVQLVQSGAEVKKPGASVKVSCKASGYTFTRNFMHWVRQAPGQGLEWMGWIYPGDGETEYAQKFQGRVTITADTSTSTAYMELSSLRSEDTAVYYCARGVYGGFAGGYFDFWGQGTLVTVSS
VL: DIQMTQSPSSLSASVGDRVTITCKASQNIYKNLAWYQQKPGKAPKLLIYDANTLQTGVPSRFSGSGSGSDFTLTISSLQPEDFATYFCQQYYSGWAFGQGTKVEIKR
modifications: drug-linker L1-14-P1 on cysteine thiols after TCEP reduction; positions not given; DAR 8.5 for the whole conjugate
notes: Antibody-drug conjugate
B14: ADC-L1-19-P1-3 (antibody, human IgG1, kappa, V domains shown)
VH: B13 VH
VL: B13 VL
modifications: drug-linker L1-19-P1 on cysteine thiols after TCEP reduction; positions not given; DAR 7.2 for the whole conjugate
notes: Antibody-drug conjugate
B15: ADC-L1-19-3 (antibody, human IgG1, kappa, V domains shown)
VH: B13 VH
VL: B13 VL
modifications: drug-linker L1-19 on cysteine thiols after TCEP reduction; positions not given; DAR 7.1 for the whole conjugate
notes: Antibody-drug conjugate
B16: CDH6-Ab (antibody, human IgG1, kappa, V domains shown)
VH: B13 VH
VL: B13 VL
notes: also called anti-human CDH6 monoclonal antibody CDH6-Ab
B17: ADC-L1-19-6 (antibody, human IgG1, kappa, V domains shown)
VH: EVQLVQSGAEVKKPGASVKVSCKASGYTFTDYYMAWVRQAPGQGLEWMGYIFPNSGGTDYSQKFKGRVTLTVDKSTSTVYMELSSLRSEDTAVYYCARELGADYGDYYAMDHWGQGTTVTVSS
VL: DIQMTQSPSSLSASVGDRVTITCRASENIDSYLAWYQQKPGKSPKLLVYSATLLADGVPSRFSGSGSGTDYTLTISSLQPEDFATYYCQHYYRTPPTFGQGTKLEIKR
modifications: drug-linker L1-19 on cysteine thiols after TCEP reduction; positions not given; DAR 7.4 for the whole conjugate
notes: Antibody-drug conjugate
B18: ADC-L1-19-P1-6 (antibody, human IgG1, kappa, V domains shown)
VH: B17 VH
VL: B17 VL
modifications: drug-linker L1-19-P1 on cysteine thiols after TCEP reduction; positions not given; DAR 8.0 for the whole conjugate
notes: Antibody-drug conjugate
B19: CDH6-Ab-3 (antibody, human IgG1, kappa, V domains shown)
VH: B17 VH
VL: B17 VL
notes: also called humanized anti-human CDH6 antibody CDH6-Ab-3

molecular target: human ROR1 on stably transfected cell strain MCF7-hROR1 clone 2G2 (human, UniProt Q01973 30-406); experiment: flow cytometry (FACS) on MCF7-hROR1 clone 2G2 cells, 5-fold dilutions from 100 nM, Alexa Fluor 647 anti-human IgG secondary antibody, four-parameter fit
Description: Stably transfected cell strain MCF7-hROR1 clone 2G2 constructed in the steps described above was expanded to a logarithmic growth phase in a T-75 cell culture flask, and the medium supernatant was discarded after centrifugation. The cell pellet was washed twice with PBS. […] After the mixture was washed twice with PBS, a secondary antibody was added: Alexa Fluor® 647 AffiniPure Goat Anti-Human IgG (H+L) (purchased from Jackson Immuno, Cat. No: 109-605-088), and the mixture was incubated at 4° C. for 1 h. After the mixture was washed twice with PBS, the cells were resuspended, and detected and analyzed by FACS (FACS Canto™, purchased from BD Biosciences). Data were analyzed by four-parameter curve fitting using Graphpad Prism software to give EC₅₀ values.

Binder | EC50
B1 | 0.98 nM
B2 | 1.25 nM
B3 | 0.57 nM
B4 | 0.91 nM
B5 | 0.42 nM
B6 | 0.98 nM
B7 | 0.5 nM
B8 | 0.43 nM
B9 | 0.75 nM
B10 | 0.99 nM

molecular target: T1, CDH6 on OVCAR3 cells; experiment: flow cytometry (FACS) on OVCAR3 cells, Alexa Fluor 647 anti-human Fc secondary antibody, MFI, four-parameter fit
Description: OVCAR3 cells were collected, counted, and plated in a 96-well plate (Corning, 3795) at 2×10⁵ cells/well. The serially diluted sample to be detected was added and incubated at 4° C. for 1 h. After the mixture was washed twice with ice PBS, Alexa Fluor-647 Goat anti-human Fc secondary antibody (JacksonImmuno, 109-605-098) was added, and the mixture was incubated at 4° C. for 1 h. After the mixture was washed twice with ice PBS, the cells were resuspended, and the mean fluorescence intensity (MFI) was analyzed using a flow cytometer (BD FACSCanto™ II). Data were analyzed by four-parameter curve fitting using Graphpad Prism software to give EC₅₀ values.

Binder | EC50
B11 | 0.51 nM
B12 | 0.63 nM
B13 | 0.49 nM
B14 | 0.36 nM
B15 | 0.34 nM
B16 | 0.71 nM
B17 | 0.85 nM
B18 | 0.8 nM
B19 | 0.78 nM
